For orientation: koff means the first-order rate constant of dissociation. A lower koff goes with a long-lived complex.

For assay [1], the target named is hen egg lysozyme (hen) (UniProt P00698). As to the kind of experiment: phage ELISA, 50 µl phage supernatant, anti-M13 detection; background 0.1. On the technique in general: ELISA stands for enzyme-linked immunosorbent assay.
Assay [2] has the same target. As to the kind of experiment: BIAcore, HEL coated chip. (SPR reads the build-up and loss of mass on a sensor chip optically.)

Sequence of UniProt P00698 (P00698 19-147 limits assumed): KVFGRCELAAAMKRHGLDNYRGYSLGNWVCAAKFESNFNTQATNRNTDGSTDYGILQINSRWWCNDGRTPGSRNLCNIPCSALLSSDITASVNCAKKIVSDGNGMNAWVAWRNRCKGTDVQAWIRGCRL

The substance “NQ11/D1.3/0 bispecific diabody displayed on phage (pHEN1) (bispecific antibody)” gave an absorbance signal in assay [1] of 2.8. For the substance chimaeric FabD1.3, in assay [2], the off-rate constant (koff) stood at 0.003 s⁻¹.

In assay [2], “construct VI bispecific NQ11/D1.3 diabody, 5-residue linkers (bispecific antibody)” came in with a koff of 0.0022 s⁻¹.

Values taken from patent US6492123.
